Assay results reported in patent US20020068706A1.

How the values were obtained:
CDK4/cyclin D1 complex = CDK4/cyclin D1 complex (UniProt P11802); assay: cell-based or functional assay
cdc2/cyclin B complex = cdc2/cyclin B complex (UniProt P06493); assay: cell-based or functional assay
Sequence of cdc2/cyclin B complex (P06493 whole entry, one chain of several): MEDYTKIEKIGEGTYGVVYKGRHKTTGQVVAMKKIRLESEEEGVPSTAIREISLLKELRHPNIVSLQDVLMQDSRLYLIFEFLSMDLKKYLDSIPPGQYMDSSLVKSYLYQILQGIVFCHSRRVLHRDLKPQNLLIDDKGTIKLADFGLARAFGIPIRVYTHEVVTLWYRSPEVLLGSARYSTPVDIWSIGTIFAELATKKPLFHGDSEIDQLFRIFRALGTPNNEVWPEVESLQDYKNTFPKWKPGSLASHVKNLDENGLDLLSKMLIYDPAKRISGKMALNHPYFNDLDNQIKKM

Sequence of CDK4/cyclin D1 complex (P11802 whole entry, chain 1 of 2): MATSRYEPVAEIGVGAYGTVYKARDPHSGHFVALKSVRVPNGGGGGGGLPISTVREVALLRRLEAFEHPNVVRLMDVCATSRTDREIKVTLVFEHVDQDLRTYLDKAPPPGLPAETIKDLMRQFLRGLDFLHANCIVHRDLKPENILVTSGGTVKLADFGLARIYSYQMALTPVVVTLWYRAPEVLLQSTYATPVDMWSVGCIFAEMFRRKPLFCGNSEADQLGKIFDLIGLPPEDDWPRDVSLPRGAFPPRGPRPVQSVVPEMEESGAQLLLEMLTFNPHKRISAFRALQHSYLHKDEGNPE
Sequence of CDK4/cyclin D1 complex (P24385 whole entry, chain 2 of 2, further chain): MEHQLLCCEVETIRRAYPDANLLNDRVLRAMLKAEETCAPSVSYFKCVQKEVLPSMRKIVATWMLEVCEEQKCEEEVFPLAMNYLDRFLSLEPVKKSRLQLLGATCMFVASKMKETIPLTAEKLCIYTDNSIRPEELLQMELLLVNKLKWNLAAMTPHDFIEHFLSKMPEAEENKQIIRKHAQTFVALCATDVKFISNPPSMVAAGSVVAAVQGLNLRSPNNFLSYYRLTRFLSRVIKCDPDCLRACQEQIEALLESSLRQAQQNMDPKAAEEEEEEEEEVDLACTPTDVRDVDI

IC50 of in vitro kinase assay (32P incorporation into Gst-Rb) (CDK4/cyclin D1 complex): 63 nM
IC50 of in vitro kinase assay (32P incorporation into Gst-Rb) (cdc2/cyclin B complex): 20 nM
Substance: p27 (from UniProt P46527 1-198)
